Results on 1 substance are retold here after patent US20050272099A1.

For the assay, the target named is androgen receptor (UniProt P10275). The experiment in a line: cell-based or functional assay.
Sequence of UniProt P10275 (P10275 whole entry): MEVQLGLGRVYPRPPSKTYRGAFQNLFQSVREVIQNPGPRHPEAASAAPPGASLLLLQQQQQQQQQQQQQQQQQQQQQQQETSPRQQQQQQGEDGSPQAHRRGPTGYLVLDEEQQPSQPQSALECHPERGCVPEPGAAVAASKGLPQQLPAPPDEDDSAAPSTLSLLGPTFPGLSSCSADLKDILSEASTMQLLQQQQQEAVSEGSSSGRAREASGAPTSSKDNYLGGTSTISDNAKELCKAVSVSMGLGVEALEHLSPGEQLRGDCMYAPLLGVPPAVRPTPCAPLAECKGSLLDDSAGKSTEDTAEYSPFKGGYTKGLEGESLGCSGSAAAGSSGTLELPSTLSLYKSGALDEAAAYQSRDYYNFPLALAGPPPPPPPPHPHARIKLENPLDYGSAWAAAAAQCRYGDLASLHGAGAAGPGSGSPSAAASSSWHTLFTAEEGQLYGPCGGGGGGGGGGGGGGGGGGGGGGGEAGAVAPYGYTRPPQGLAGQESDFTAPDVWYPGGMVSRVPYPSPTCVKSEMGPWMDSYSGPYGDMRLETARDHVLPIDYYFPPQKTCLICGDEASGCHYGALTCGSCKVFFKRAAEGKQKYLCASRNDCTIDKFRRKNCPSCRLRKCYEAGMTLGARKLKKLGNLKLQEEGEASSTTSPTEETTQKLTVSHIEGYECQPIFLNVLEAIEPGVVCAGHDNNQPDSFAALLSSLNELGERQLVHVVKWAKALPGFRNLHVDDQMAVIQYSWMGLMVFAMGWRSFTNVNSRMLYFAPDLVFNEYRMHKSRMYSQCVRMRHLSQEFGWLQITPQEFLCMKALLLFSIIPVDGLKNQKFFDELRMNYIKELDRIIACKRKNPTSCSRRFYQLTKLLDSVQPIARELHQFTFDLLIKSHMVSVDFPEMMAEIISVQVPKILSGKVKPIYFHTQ

As to “androgen receptor complex-associated protein (from UniProt Q58WW2 1-860)”, the luciferase activity, AFP promoter (androgen responsive element) reporter in G2 cells, relative to the control reporter with mutated ARE is 3 to 4 fold.
